Results taken from publication PMC8529273.

target: human ACE-2, Fc-tagged (human) (UniProt Q9BYF1); assay: BLI

| Substance | Kd | koff | kon |
| --- | --- | --- | --- |
| SARS-CoV-2 B.1.351 RBD (K417N_E484K_N501Y) (domain or fragment) | 7.81 nM |  |  |
| SARS-CoV-2 RBD K417T (domain or fragment) | 56.7 nM | 0.0129 s⁻¹ |  |
| SARS-CoV-2 RBD K417N (domain or fragment) | 77 nM | 0.0162 s⁻¹ |  |
| SARS-CoV-2 RBD E484K (domain or fragment) | 15.6 nM | 0.00677 s⁻¹ | 433000 M⁻¹ s⁻¹ |
| SARS-CoV-2 P.1 RBD (K417T_E484K_N501Y) (domain or fragment) | 5.64 nM |  |  |
| SARS-CoV-2 receptor-binding domain (RBD) wild type (Wuhan strain) (domain or fragment) | 23.9 nM | 0.00755 s⁻¹ | 315000 M⁻¹ s⁻¹ |
